Measurements as given in FireProtDB (doi:10.1007/s00249-013-0926-9).

B1: Photosystem II lipoprotein Psb27, P74367 (parent)
chain: MSFLKNQLSRLLALILVVAIGLTACDSGTGLTGNYSQDTLTVIATLREAIDLPQDAPNRQEVQDTARGQINDYISRYRRKGDAGGLKSFTTMQTALNSLAGYYTSYGARPIPEKLKKRLQLEFTQAERSIERGV

Variants of: B1
Conditions: Synechocystis sp. (strain ATCC 27184 / PCC 6803 / Kazusa); pH 7; Thermal; CD; Sodium phosphate Tris HCl 20 mM; transition: 2; reversible: Yes; structure 2KMF; whole UniProt chain shown
With Y102H the Tm was 56.3 °C.
For R118E, the Tm was 56.6 °C.
Variant R78E has a Tm of 57 °C.
For D38A, the Tm was 41.9 °C.
With R132E the Tm was 60.2 °C.
E127R gave a Tm of 56.1 °C.
For P110G I111G P112G, the Tm was 43.3 °C.
Work on P110G P112G yielded a Tm of 49.2 °C.
In the case of E122R, the Tm is reported as 54.4 °C.
For C25S, the Tm was 58.2 °C.
